Measurements taken from IntAct's records for PubMed 33758649.

B1: Protein PALS1 (Homo sapiens), Q8N3R9 (parent)
chain: MTTSHMNGHVTEESDSEVKNVDLASPEEHQKHREMAVDCPGDLGTRMMPIRRSAQLERIRQQQEDMRRRREEEGKKQELDLNSSMRLKKLAQIPPKTGIDNPMFDTEEGIVLESPHYAVKILEIEDLFSSLKHIQHTLVDSQSQEDISLLLQLVQNKDFQNAFKIHNAITVHMNKASPPFPLISNAQDLAQEVQTVLKPVHHKEGQELTALLNTPHIQALLLAHDKVAEQEMQLEPITDERVYESIGQYGGETVKIVRIEKARDIPLGATVRNEMDSVIISRIVKGGAAEKSGLLHEGDEVLEINGIEIRGKDVNEVFDLLSDMHGTLTFVLIPSQQIKPPPAKETVIHVKAHFDYDPSDDPYVPCRELGLSFQKGDILHVISQEDPNWWQAYREGDEDNQPLAGLVPGKSFQQQREAMKQTIEEDKEPEKSGKLWCAKKNKKKRKKVLYNANKNDDYDNEEILTYEEMSLYHQPANRKRPIILIGPQNCGQNELRQRLMNKEKDRFASAVPHTTRSRRDQEVAGRDYHFVSRQAFEADIAAGKFIEHGEFEKNLYGTSIDSVRQVINSGKICLLSLRTQSLKTLRNSDLKPYIIFIAPPSQERLRALLAKEGKNPKPEELREIIEKTREMEQNNGHYFDTAIVNSDLDKAYQELLRLINKLDTEPQWVPSTWLR

Variants of: B1
Conditions: with vemp_sars2 E

**Q.** For F318W, which “effect of a mutation on the interaction” value is on record?
**A.** increasing interaction strength
